Reference: PMC6937562
One block for each substance: values may come before it.

How the values were obtained:
[1] = target: PspCN-anchored FH (on the HJEM6 SPR chip) (human | Streptococcus pneumoniae) (UniProt P08603); assay: SPR; homemade HJEM6 chip, FH (54 RU) captured by clicked sumo-Cys-PspCN-azide (18 RU); C3b flowed (1 μM to 3.9 nM); 1:1 steady-state model
C3b (human) [2] = target: C3b (human) (UniProt P01024); assay: SPR; homemade HJEM7 chip (50% OH, 25% COOH, 25% propargyl), 144 RU C3b amine-coupled; FH (2 μM to 3.9 nM) or FH 19–20 (10 μM to 3.9 nM) flowed; Biacore T200, 25 °C, HBS-P pH 7.4; 1:1 steady-state model
C3b (human) [3] = target: C3b (human) (UniProt P01024); assay: SPR; homemade HJEM7 chip, 143 RU C3b amine-coupled and 174 RU 3′-sialyllactose clicked on; FH (2 μM to 3.9 nM) or FH 19–20 (10 μM to 3.9 nM) flowed; Biacore T200, 25 °C, HBS-P pH 7.4; 1:1 steady-state model
C3b (human) [4] = target: C3b (human) (UniProt P01024); assay: AFM force-distance measurements; Cys-PspCN thiol-coupled to the SAM on the AFM probe tip, alone or with FH anchored to it; partner amine-coupled to the SAM on a gold wafer; PBS, laboratory at 22 °C; single (type 3) detachment events
C3b (human) [5] = target: C3b (human) (UniProt P01024); assay: SPR; C1 chip with immobilised C3b; cycles of a mixture of FB and FD, then C3, injected at 10 μl/min; Biacore T200, 25 °C, HBS-P pH 7.4 with 1 mM MgCl2

Substance: C3b (from UniProt P01024 23-667; P01024 749-1663) (natural protein)
Kd [1]: 70 nM

Kd (C3b (human) [2]): 350 nM
Kd (C3b (human) [3]): 2600 nM
Substance: FH 19–20 (domain or fragment)

Substance: PspCN-anchored FH (on the AFM probe tip) (from UniProt P08603 19-1231) (complex)
detachment force of single events (C3b (human) [4]): 0.1 to 0.26 nN
mean detachment force (C3b (human) [4]): 0.17 nN

percent of C3b molecules binding FB (C3b (human) [5]): < 80%
Substance: factor B (natural protein)
